# According to patent US20250223353A1 (BIOTHEUS, published 2025):
# T1: mouse PVRIG-Fc protein (mouse)
# T1 construct: not shown: Fc part
# T1 chain: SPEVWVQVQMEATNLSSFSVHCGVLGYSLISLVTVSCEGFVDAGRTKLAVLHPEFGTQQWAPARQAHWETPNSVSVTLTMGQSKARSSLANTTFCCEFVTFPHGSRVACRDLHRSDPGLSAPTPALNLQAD
# T2: cynomolgus monkey PVRIG-Fc protein (cynomolgus monkey, UniProt Q6DKI7 41-171 (human entry), limits assumed)
# T2 construct: also called cynomolgus PVRIG-Fc protein; not shown: Fc part
# T2 chain: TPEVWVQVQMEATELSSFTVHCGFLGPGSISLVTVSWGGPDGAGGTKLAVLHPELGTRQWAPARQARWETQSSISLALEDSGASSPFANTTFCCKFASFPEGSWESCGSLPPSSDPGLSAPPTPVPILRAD
# T3: human PVRIG-his protein (human, UniProt Q6DKI7 41-171)
# T3 construct: also called PVRIG-his antigen; human PVRIG protein; not shown: his tag
# T3 sequence: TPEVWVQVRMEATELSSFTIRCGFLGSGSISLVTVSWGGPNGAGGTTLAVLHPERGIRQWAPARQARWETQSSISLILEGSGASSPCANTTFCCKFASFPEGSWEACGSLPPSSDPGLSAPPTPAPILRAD
# T4: human PVRIG-Fc protein (human, UniProt Q6DKI7 41-171)
# T4 construct: also called PVRIG-Fc antigen (human); not shown: Fc part
# T4 sequence: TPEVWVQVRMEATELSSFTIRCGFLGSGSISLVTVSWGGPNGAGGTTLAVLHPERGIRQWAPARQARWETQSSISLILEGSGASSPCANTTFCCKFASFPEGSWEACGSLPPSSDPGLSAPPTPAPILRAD
# T5: cynomolgus PVRIG overexpressed on CHO cells (cynomolgus, UniProt A0A2K5WVV8 1-322)
# T5 construct: whole, on cells; also called CHO-cynoPVRIG cells
# T5 sequence: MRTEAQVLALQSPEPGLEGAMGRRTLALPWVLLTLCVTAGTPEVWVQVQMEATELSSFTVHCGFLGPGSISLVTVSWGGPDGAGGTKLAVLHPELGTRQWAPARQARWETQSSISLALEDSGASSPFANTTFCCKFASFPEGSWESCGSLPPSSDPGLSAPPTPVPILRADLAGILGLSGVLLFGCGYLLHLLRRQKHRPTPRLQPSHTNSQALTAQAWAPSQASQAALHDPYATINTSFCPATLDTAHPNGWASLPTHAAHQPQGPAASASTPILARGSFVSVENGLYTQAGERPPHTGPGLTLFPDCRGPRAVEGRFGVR
# T6: human PVRIG on the cell surface (human, UniProt Q6DKI7 41-326)
# T6 construct: whole, on cells; also called CHO-huPVRIG cells; human PVRIG protein overexpressed on the surface of CHO cells
# T6 sequence (looked up): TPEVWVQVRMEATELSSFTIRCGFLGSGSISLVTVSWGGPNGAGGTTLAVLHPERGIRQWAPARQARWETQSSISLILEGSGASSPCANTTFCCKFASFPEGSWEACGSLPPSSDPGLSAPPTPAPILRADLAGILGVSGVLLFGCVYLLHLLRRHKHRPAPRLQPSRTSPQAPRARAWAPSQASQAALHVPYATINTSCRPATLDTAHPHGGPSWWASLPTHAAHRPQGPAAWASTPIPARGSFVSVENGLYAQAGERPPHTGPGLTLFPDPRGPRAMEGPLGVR
# T7: human PVRIG protein with mouse IgG2a Fc tag (human, UniProt Q6DKI7 41-171, limits assumed)
# T7 construct: not shown: mouse IgG2a Fc tag
# T7 sequence (looked up): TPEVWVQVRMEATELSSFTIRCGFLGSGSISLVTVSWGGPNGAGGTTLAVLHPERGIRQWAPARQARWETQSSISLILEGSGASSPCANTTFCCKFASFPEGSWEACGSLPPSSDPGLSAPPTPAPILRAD
# How the values were obtained:
# mouse PVRIG-Fc protein = biological target: T1, mouse PVRIG-Fc protein; assay: BLI (ForteBio), IgG on AHQ sensor, 100 nM PVRIG-Fc in solution, bivalent
# [1] = biological target: T2, cynomolgus monkey PVRIG-Fc protein; assay: BLI (ForteBio), IgG on AHQ sensor, 100 nM PVRIG-Fc in solution, bivalent, 1:1 model
# Experimental: (§1) Biofilm layer optical interference technology (ForteBio) was used to determine the binding and dissociation rate constant (KD) values of the antibodies and their variants or Fab fragments obtained in Example 1 to human, cynomolgus monkey and mouse PVRIG. ForteBio affinity measurement was performed according to existing methods (Este, P et al., High throughput solution-based measurement of antibody-antigen affinity and epitope binning. Mabs, 2013.5 (2): p270-8).
# The antibody-loaded sensor was continued to be loaded in a high concentration of irrelevant intact antibody for 10 min, saturating the Fc-binding site on the AHQ sensor. The saturated sensor was incubated in 100 nM PVRIG-Fc antigens to the plateau phase, and then the sensor was transferred to an analysis buffer and incubated for at least 2 minutes for measuring dissociation rate. The kinetic analysis was performed using a 1:1 binding model.
# human PVRIG-his protein = biological target: T3, human PVRIG-his protein; assay: BLI (ForteBio), IgG on AHQ sensor, 100 nM PVRIG-his in solution, monovalent, 1:1 model
# Experimental: as §1
# The antibody-loaded sensor was incubated in 100 nM PVRIG-his antigen to the plateau phase, and then the sensor was transferred to an analysis buffer and incubated for at least 2 minutes for measuring dissociation rate. The kinetic analysis was performed using a 1:1 binding model.
# [2] = biological target: T2, cynomolgus monkey PVRIG-Fc protein; assay: BLI (ForteBio), PVRIG-Fc on AHQ sensor, 100 nM Fab in solution, monovalent, 1:1 model
# Experimental: as §1
# (§2) The antigen-loaded sensor was incubated in 100 nM Fab solution to the plateau phase, and then the sensor was transferred to an analysis buffer and incubated for at least 2 minutes for measuring dissociation rate. The kinetic analysis was performed using a 1:1 binding model.
# human PVRIG-Fc protein = biological target: T4, human PVRIG-Fc protein; assay: as above
# Experimental: as §1, §2
# [3] = biological target: T5, cynomolgus PVRIG overexpressed on CHO …; assay: flow cytometry on CHO-cynoPVRIG cells
# Experimental: (§3) The overexpressing cells were expanded and adjusted to an appropriate cell density, and added to a 96-well flow cytometry plate. After centrifugation, the cells were added with a gradiently diluted sample to be tested, and incubated at 4° C. for 30 minutes. The cells were washed twice with PBS, and added with a fluorescent secondary antibody correspondingly diluted to an appropriate concentration, then incubated at 4° C. for 30 minutes, and washed twice with PBS. Cells were resuspended with PBS, and detected on a CytoFlex flow cytometer, and the corresponding MFI was calculated. Graphpad software was used for graphical analysis to obtain EC50 values.
# [4] = biological target: T6, human PVRIG on the cell surface; assay: flow cytometry on CHO-huPVRIG cells
# Experimental: as §3
# [5] = biological target: T7, human PVRIG protein with mouse IgG2a Fc …; assay: flow cytometry competition: human PVRIG-mouse IgG2a Fc (1 ug/mL) binding to CHO-huCD112 cells
# Experimental: Specifically, CHO cells overexpressing human CD112 (CHO-huCD112 cells) were generated by transfection of the pCHO1.0 vector (purchased from Invitrogen) with cDNA encoding human CD112 cloned into the multiple cloning site (MCS), followed by pressure screening. The CHO-huCD112 cells were expanded and adjusted to a cell density of 2×10^6 cells/mL, added to a 96-well flow plate at 100 μL/well, and centrifuged for later use. The purified monoclonal antibody was gradiently diluted with PBS and the diluted sample was added to a 96-well flow plate at 60 μL/well. […] The above incubated samples were added at 100 μL/well to the 96-well flow plate containing CHO-huCD112 cells, incubated at 4° C. for 30 min and washed twice with PBS. APC-conjugated goat anti-mouse IgG antibody diluted 100-fold with PBS was added at 100 μL/well, incubated at 4° C. for 30 minutes and washed twice with PBS. Cells were resuspended with PBS at 100 μL/well, and detected on a CytoFlex flow cytometer, and the corresponding MFI was calculated.
binder,measurement,setting,value
"ADI-56145 (antibody, V domains shown, Full-length IgG secreted by yeast and purified on Protein A; also called anti-PVRIG antibody ADI-56145 (full-length IgG obtained from Adimab)) VH: QVQLVQSGAEVKKPGASVKVSCKASGYTFTSYGISWVRQAPGQGLEWVGWISSYDASTKYSQELQGRVTMTTDTSTSTAYMELRSLRSEDTAVYYCARGSPIYEHFNWFDPWGQGTLVTVSS VL: EIVLTQSPATLSLSPGERATLSCRASQSVSSYLAWYQQKPGQAPRLLIYDSSNRATGIPARFSGSGSGTDFTLTISSLEPEDFAVYYCQQLSHHPLTFGGGTKVEIK",binding result,mouse PVRIG-Fc protein,no binding (tested: 100 nM)
same,Kd,[1],0.623 nM
same,Kd,human PVRIG-his protein,2.04 nM
"ADI-56145 Fab fragment (Fab, V domains shown, Fab made by papain digestion of the yeast full-length IgG, purified with Kappa Select; also called Fab of ADI-56145) VH: QVQLVQSGAEVKKPGASVKVSCKASGYTFTSYGISWVRQAPGQGLEWVGWISSYDASTKYSQELQGRVTMTTDTSTSTAYMELRSLRSEDTAVYYCARGSPIYEHFNWFDPWGQGTLVTVSS VL: EIVLTQSPATLSLSPGERATLSCRASQSVSSYLAWYQQKPGQAPRLLIYDSSNRATGIPARFSGSGSGTDFTLTISSLEPEDFAVYYCQQLSHHPLTFGGGTKVEIK",Kd,[2],157 nM
same,Kd,human PVRIG-Fc protein,0.758 nM
"ADI-56145-G1LALA (antibody, human IgG1, kappa, L234A L235A, V domains shown) VH: QVQLVQSGAEVKKPGASVKVSCKASGYTFTSYGISWVRQAPGQGLEWVGWISSYDASTKYSQELQGRVTMTTDTSTSTAYMELRSLRSEDTAVYYCARGSPIYEHFNWFDPWGQGTLVTVSS VL: EIVLTQSPATLSLSPGERATLSCRASQSVSSYLAWYQQKPGQAPRLLIYDSSNRATGIPARFSGSGSGTDFTLTISSLEPEDFAVYYCQQLSHHPLTFGGGTKVEIKR",EC50,[3],37.6 nM
same,EC50,[4],2.29 nM
same,IC50,[5],1.36 nM
"ADI-56204 Fab fragment (Fab, V domains shown, Fab made by papain digestion of the yeast full-length IgG, purified with Kappa Select) VH: QVQLVQSGAEVKKPGASVKVSCKASGYTFTHYGIYWVRQAPGQGLEWMGHIYAYSGDTDYAQKLQGRVTMTTDTSTSTAYMELRSLRSDDTAVYYCARGSPTYEHFNWFDPWGQGTLVTVSS VL: DIQMTQSPSSLSASVGDRVTITCQASDDISDYLNWYQQKPGKAPKLLIYDASSLHTGVPSRFSGSGSGTDFTFTISSLQPEDIATYYCQQYGNLPITFGGGTKVEIK",Kd,[2],14.8 nM
same,Kd,human PVRIG-Fc protein,0.383 nM
